Source: the Immune Epitope Database (IEDB)

Assays:
Test in all cases: IEDB peptide-MHC binding, purified MHC/competitive/radioactivity; filed as Kd, often an IC50 or EC50 that approximates it; ≥ and ≤ were set here for values at or beyond the usual limits of such assays
HLA-A*31:01 = target: HLA-A*31:01
HLA-A*03:01 = target: HLA-A*03:01
HLA-A*68:01 = target: HLA-A*68:01
HLA-A*33:01 = target: HLA-A*33:01
HLA-A*11:01 = target: HLA-A*11:01
HLA-A*02:06 = target: HLA-A*02:06
HLA-A*02:02 = target: HLA-A*02:02
HLA-A*02:03 = target: HLA-A*02:03
[1] = source organism: Vaccinia virus WR
[2] = source organism: SARS coronavirus Tor2
[3] = source organism: Mammarenavirus machupoense

| Sequence | Kd (HLA-A*31:01; [1]) | Kd (HLA-A*03:01; [1]) | Kd (HLA-A*68:01; [1]) | Kd (HLA-A*33:01; [1]) | Kd (HLA-A*11:01; [1]) | other results |
| --- | --- | --- | --- | --- | --- | --- |
| VSLKKTNDK | 8.77 µM | 0.193 µM | 19.4 µM | ≥ 54.8 µM | 32.1 nM | – |
| VSLLRSTSQK | – | – | – | – | – | Kd (HLA-A*31:01; [2]): 0.175 µM; Kd (HLA-A*03:01; [2]): 0.0116 µM; Kd (HLA-A*68:01; [2]): 6.33 µM; Kd (HLA-A*33:01; [2]): 2.54 µM; Kd (HLA-A*11:01; [2]): 172 nM |
| VSMTYLYNKY | ≥ 28.9 µM | 15.4 µM | ≥ 70.2 µM | ≥ 70 µM | 96.5 nM | – |
| VTLADAGFMK | – | – | – | – | – | Kd (HLA-A*31:01; [2]): 1.2 µM; Kd (HLA-A*03:01; [2]): 0.033 µM; Kd (HLA-A*68:01; [2]): 0.135 µM; Kd (HLA-A*33:01; [2]): 11.7 µM; Kd (HLA-A*11:01; [2]): 3.92 nM |
| VVDTFISYNR | 0.0252 µM | 2.54 µM | 0.0805 µM | 0.101 µM | 343 nM | – |
| WIQYDKHCY | 5.66 µM | 5.82 µM | 2.98 µM | ≥ 60.4 µM | 39.5 nM | – |
| WVSLKKTNDK | ≥ 32.7 µM | 2.09 µM | ≥ 45.5 µM | ≥ 70 µM | 608 nM | – |
| YAGTIKESL | – | – | – | – | – | Kd (HLA-A*02:06; [1]): 3300 nM; Kd (HLA-A*02:02; [1]): 2070 nM; Kd (HLA-A*02:03; [1]): 2490 nM |
| YCSTNHLSK | – | – | – | – | – | Kd (HLA-A*31:01; [3]): ≥ 77.9 µM; Kd (HLA-A*03:01; [3]): 19.2 µM; Kd (HLA-A*68:01; [3]): ≥ 23.1 µM; Kd (HLA-A*33:01; [3]): ≥ 77.7 µM; Kd (HLA-A*11:01; [3]): 14900 nM |
| YIFFASFYYI | – | – | – | – | – | Kd (HLA-A*02:06; [2]): 0.8 nM; Kd (HLA-A*02:02; [2]): 0.46 nM; Kd (HLA-A*02:03; [2]): 59.8 nM |
| YITIQDRPR | 0.138 µM | ≥ 78 µM | 0.0262 µM | 0.187 µM | ≥ 44800 nM | – |
| YIVHSYLKNY | ≥ 70 µM | ≥ 70.1 µM | ≥ 70.2 µM | ≥ 70 µM | ≥ 69800 nM | – |
| YLGPRVCWL | – | – | – | – | – | Kd (HLA-A*02:06; [1]): 23.2 nM; Kd (HLA-A*02:02; [1]): 0.901 nM; Kd (HLA-A*02:03; [1]): 3.36 nM |
| YLIHDNIMY | ≥ 77.9 µM | 10.6 µM | ≥ 26.9 µM | ≥ 77.7 µM | 14900 nM | – |
| YVEHDPRLV | – | – | – | – | – | Kd (HLA-A*02:06; [1]): ≥ 22500 nM; Kd (HLA-A*02:02; [1]): 1180 nM; Kd (HLA-A*02:03; [1]): 711 nM |
| YVHEGVSYEV | – | – | – | – | – | Kd (HLA-A*02:06; [1]): 9.08 nM; Kd (HLA-A*02:02; [1]): 12.9 nM; Kd (HLA-A*02:03; [1]): 71 nM |
